Experimental data taken from PMC4740875, “Sequential domain assembly of ribosomal protein S3 drives 40S subunit maturation” (Nature Communications, 2016).

T1: His6-Rps3 (S. cerevisiae, UniProt P05750 1-240)
T1 construct: Rps3, S. cerevisiae; expressed from pETDuet-1; source: E. coli BL21 (DE3) Rosetta Star, purified (Ni-NTA agarose) in complex with Yar1 or with Ltv1-Flag; not shown: His6, N-terminal, kept
T1 sequence (looked up): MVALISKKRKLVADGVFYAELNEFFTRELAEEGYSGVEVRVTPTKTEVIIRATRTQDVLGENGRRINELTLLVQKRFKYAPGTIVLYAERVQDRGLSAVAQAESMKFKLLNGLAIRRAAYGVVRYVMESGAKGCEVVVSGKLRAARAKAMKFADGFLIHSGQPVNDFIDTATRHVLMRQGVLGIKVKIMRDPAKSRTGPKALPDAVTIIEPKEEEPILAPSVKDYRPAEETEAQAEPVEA

T2: Enp1-Flag-TEV-ProteinA (Enp1-FPA) (S. cerevisiae, UniProt P38333 1-483)
T2 construct: Enp1, S. cerevisiae; A TEV site lies between Flag and Protein A; expressed from pET15b; source: E. coli, purified (anti-Flag agarose); not shown: Flag, C-terminal, kept; Protein A, C-terminal, kept
T2 sequence (looked up): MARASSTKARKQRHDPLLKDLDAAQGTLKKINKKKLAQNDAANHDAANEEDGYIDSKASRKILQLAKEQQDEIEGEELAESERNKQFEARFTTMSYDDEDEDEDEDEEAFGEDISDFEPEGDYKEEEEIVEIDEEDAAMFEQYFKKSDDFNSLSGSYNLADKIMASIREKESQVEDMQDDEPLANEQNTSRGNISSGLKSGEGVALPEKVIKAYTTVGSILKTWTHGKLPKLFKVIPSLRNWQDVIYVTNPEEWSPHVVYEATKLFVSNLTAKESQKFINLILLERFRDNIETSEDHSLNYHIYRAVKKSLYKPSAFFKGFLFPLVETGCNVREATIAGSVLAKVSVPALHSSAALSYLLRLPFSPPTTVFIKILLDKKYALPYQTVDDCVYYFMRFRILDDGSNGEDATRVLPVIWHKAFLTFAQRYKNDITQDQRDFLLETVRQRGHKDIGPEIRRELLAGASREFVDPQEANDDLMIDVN

T3: Yar1 core (8-153) (S. cerevisiae, UniProt P46683 8-153)
T3 construct: Yar1, S. cerevisiae, structural core lacking the N- and C-terminal extensions, residues 8-153; also called Yar1 structural core; Yar1(8-153)
T3 sequence (looked up): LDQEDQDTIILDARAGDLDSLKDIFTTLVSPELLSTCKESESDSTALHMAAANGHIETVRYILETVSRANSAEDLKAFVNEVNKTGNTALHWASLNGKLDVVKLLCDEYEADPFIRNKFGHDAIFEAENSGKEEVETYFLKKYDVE

B1: Yar1 of the purified His6-Rps3/Yar1 complex (natural protein, S. cerevisiae, UniProt P46683 1-200, looked up)
chain: MGLHSEPLDQEDQDTIILDARAGDLDSLKDIFTTLVSPELLSTCKESESDSTALHMAAANGHIETVRYILETVSRANSAEDLKAFVNEVNKTGNTALHWASLNGKLDVVKLLCDEYEADPFIRNKFGHDAIFEAENSGKEEVETYFLKKYDVEPEDDEEDTQTEGKNSVQITKGTEIEQVTKEATEALREETEKLNINKD
notes: Yar1, S. cerevisiae; No tag is named for Yar1 in this complex; source: E. coli BL21 (DE3) Rosetta Star, purified in complex with His6-Rps3 (Ni-NTA agarose)
B2: full-length Yar1 (Yar1-FL), SAXS sample (natural protein, S. cerevisiae, UniProt P46683 1-200, looked up)
chain: B1 chain
notes: Yar1, ankyrin-repeat protein, S. cerevisiae, full-length; modelled as Yar1 (1-214 including tag; 14 N-terminal residues from the His-tag); not shown: His-tag, N-terminal, kept
B3: Flag-Yar1 (natural protein, S. cerevisiae, UniProt P46683 1-200, looked up)
chain: B1 chain
notes: Yar1, S. cerevisiae; expressed from pETDuet-1; source: E. coli, purified (anti-Flag agarose); not shown: Flag, N-terminal, kept
B4: Ltv1-Flag (natural protein, S. cerevisiae, UniProt P34078 1-463, looked up)
chain: MSKKFSSKNSQRYVVVHRPHDDPSFYDTDASAHVLVPVSNPNKTSPEADLRKKDVSSTKPKGRRAHVGEAALYGINFDDSEYDYTQHLKPIGLDPENSIFIASKGNEQKVEKKNIEDLFIEPKYRRDEIEKDDALPVFQRGMAKPEYLLHQQDTTDEIRGFKPDMNPALREVLEALEDEAYVVNDDVVVEDISKKTQLQGDNYGEEEKEDDIFAQLLGSGEAKDEDEFEDEFDEWDIDNVENFEDENYVKEMAQFDNIENLEDLENIDYQADVRRFQKDNSILEKHNSDDEFSNAGLDSVNPSEEEDVLGELPSIQDKSKTGKKKRKSRQKKGAMSDVSGFSMSSSAIARTETMTVLDDQYDQIINGYENYEEELEEDEEQNYQPFDMSAERSDFESMLDDFLDNYELESGGRKLAKKDKEIERLKEAADEVSKGKLSQRRNRERQEKKKLEKVTNTLSSLKF
notes: Ltv1, S. cerevisiae; expressed from pET15b; source: E. coli, purified (anti-Flag agarose); also co-expressed in E. coli with His6-Rps20 (in lysate) and purified in complex with His6-Rps3; not shown: Flag, C-terminal, kept
B5: Rps3 N-domain (1-95) (domain or fragment, S. cerevisiae, UniProt P05750 1-95, looked up)
chain: MVALISKKRKLVADGVFYAELNEFFTRELAEEGYSGVEVRVTPTKTEVIIRATRTQDVLGENGRRINELTLLVQKRFKYAPGTIVLYAERVQDRG
notes: Rps3, S. cerevisiae, N-domain, residues 1-95
B6: full-length Rps3 (ribosomal protein S3), SAXS sample (natural protein, S. cerevisiae, UniProt P05750 1-240, looked up)
chain: T1 sequence (looked up)
notes: Rps3, S. cerevisiae, full-length; modelled as Rps3 (1-249 including tag); How the SAXS samples were produced is not described; the methods describe His6-tagged proteins from E. coli BL21 (DE3) Rosetta Star in general; also called r-protein S3

Legend:
His6-Rps3 [1] = biological target: T1, His6-Rps3; experiment: pull-down; in vitro competition: purified His6-Rps3/Yar1 complex immobilized on Ni-NTA agarose, incubated with buffer or an ∼6-fold molar excess (over Rps3) of purified Ltv1-Flag and/or Enp1-FPA; supernatants and eluates by Coomassie or western blot; conditions: both partners purified
[2] = biological target: B6; experiment: SAXS; small-angle X-ray scattering in solution, direct injection or size exclusion separation before data collection; Tris-HCl 50 mM and NaCl 200 mM, pH 7.5; Rps3 constructs measured in complex with Yar1 constructs; conditions: both partners purified
His6-Rps3 [3] = biological target: T1, His6-Rps3; experiment: pull-down; in vitro competition: purified His6-Rps3/Ltv1-Flag complex immobilized on Ni-NTA agarose, incubated with buffer or an ∼1.5-fold or 6-fold molar excess of purified Flag-Yar1; eluates and supernatants by Coomassie or western blot; conditions: both partners purified
[4] = biological target: T2, Enp1-Flag-TEV-ProteinA (Enp1-FPA); experiment: pull-down; in vitro competition: purified His6-Rps3/Yar1 complex immobilized on Ni-NTA agarose, incubated with buffer or an ∼6-fold molar excess (over Rps3) of purified Ltv1-Flag and/or Enp1-FPA; supernatants and eluates by Coomassie or western blot; conditions: both partners purified
[5] = biological target: B2; experiment: SAXS; small-angle X-ray scattering in solution, direct injection or size exclusion separation before data collection; Tris-HCl 50 mM and NaCl 200 mM, pH 7.5; Rps3 constructs measured in complex with Yar1 constructs; conditions: both partners purified
Yar1 core (8-153) = biological target: T3, Yar1 core (8-153); experiment: as above; conditions: both partners purified
[6] = biological target: the molecule itself; experiment: as above

Binder: B1
binding result (His6-Rps3 [1]): binds

Binder: B2
binding result [2]: binds

Binder: B3
binding result (His6-Rps3 [3]): binds

Binder: B4
binding result [4]: binds

Binder: B5
binding result [5]: binds
binding result (Yar1 core (8-153)): binds

Binder: B6
stoichiometry N [6]: 2
